{"source": "paper PMC11969024", "about": "(2025)", "parents": {"B1": {"name": "peptide HD2 (from tick evasin EVA4) / CXCL13 (biotinylated, synthetic) (parent complex)", "chain 1": "EEDDYTAYAPLTCYFT", "chain 2": "VLEVYYTSLRCRCVQESSVFIPRRFIDRIQILPRGNGCPRKEIIVWKKNKSIVCVDPQAEWIQRMMEVLRKRSSSTLPVPVFKRKIP"}, "B2": {"name": "peptide HD2 (from tick evasin EVA4) / CCL19 (biotinylated, synthetic) (parent complex)", "chain 1": "EEDDYTAYAPLTCYFT", "chain 2": "GTNDAEDCCLSVTQKPIPGYIVRNFHYLLIKDGCRVPAVVFTTLRGRQLCAPPDQPWVERIIQRLQRTSAKMKRRSS"}}}
{"variants_of": "B1"}
{"variant": "chain 1 EEYDYTAYAPLTCYFT", "enrichment": "-2.28 log2 (difference from the parental peptide)"}
{"variant": "chain 1 EEVDYTAYAPLTCYFT", "enrichment": "-5.31 log2 (difference from the parental peptide)"}
{"variant": "chain 1 EEGDYTAYAPLTCYFT", "enrichment": "-5.23 log2 (difference from the parental peptide)"}
{"variant": "chain 1 EEQDYTAYAPLTCYFT", "enrichment": "-3.76 log2 (difference from the parental peptide)"}
{"variant": "chain 1 EETDYTAYAPLTCYFT", "enrichment": "-4.07 log2 (difference from the parental peptide)"}
{"variant": "chain 1 EEWDYTAYAPLTCYFT", "enrichment": "-0.789 log2 (difference from the parental peptide)"}
{"variant": "chain 1 EEADYTAYAPLTCYFT", "enrichment": "-5.8 log2 (difference from the parental peptide)"}
{"variant": "chain 1 EEDDVTAYAPLTCYFT", "enrichment": "-2.43 log2 (difference from the parental peptide)"}
{"variant": "chain 1 EEDDITAYAPLTCYFT", "enrichment": "-1.67 log2 (difference from the parental peptide)"}
{"variant": "chain 1 EEDDWTAYAPLTCYFT", "enrichment": "5.05 log2 (difference from the parental peptide)"}
{"variant": "chain 1 EEDDYFAYAPLTCYFT", "enrichment": "1.42 log2 (difference from the parental peptide)"}
{"variant": "chain 1 EEDDYYAYAPLTCYFT", "enrichment": "3.32 log2 (difference from the parental peptide)"}
{"variant": "chain 1 EEDDYLAYAPLTCYFT", "enrichment": "1.48 log2 (difference from the parental peptide)"}
{"variant": "chain 1 EEDDYSAYAPLTCYFT", "enrichment": "2.15 log2 (difference from the parental peptide)"}
{"variant": "chain 1 EEDDYTAYAALTCYFT", "enrichment": "-4.03 log2 (difference from the parental peptide)"}
{"variant": "chain 1 EEDDYTAYAVLTCYFT", "enrichment": "-9.15 log2 (difference from the parental peptide)"}
{"variant": "chain 1 EEDDYTAYALLTCYFT", "enrichment": "-9.28 log2 (difference from the parental peptide)"}
{"variant": "chain 1 EEDDYTAYAWLTCYFT", "enrichment": "-7.62 log2 (difference from the parental peptide)"}
{"variant": "chain 1 EEDDYTAYAELTCYFT", "enrichment": "-2.35 log2 (difference from the parental peptide)"}
{"variant": "chain 1 EEDDYTAYAHLTCYFT", "enrichment": "-5.73 log2 (difference from the parental peptide)"}
{"variant": "chain 1 EEDDYTAYAPLTCVFT", "enrichment": "-9.22 log2 (difference from the parental peptide)"}
{"variant": "chain 1 EEDDYTAYAPLTCWFT", "enrichment": "-2.89 log2 (difference from the parental peptide)"}
{"variant": "chain 1 EEDDYTAYAPLTCMFT", "enrichment": "-7.75 log2 (difference from the parental peptide)"}
{"variant": "chain 1 EEDDYTAYAPLTCFFT", "enrichment": "-0.356 log2 (difference from the parental peptide)"}
{"variant": "chain 1 EEDDYTAYAPLTCTFT", "enrichment": "-6.13 log2 (difference from the parental peptide)"}
{"variant": "chain 1 EEDDYTAYAPLRCYFT", "enrichment": "-8.86 log2 (difference from the parental peptide)"}
{"variant": "chain 1 EEDDYTAYAPLPCYFT", "enrichment": "-5.86 log2 (difference from the parental peptide)"}
{"variant": "chain 1 EEDDYTAYAPLSCYFT", "enrichment": "-6.76 log2 (difference from the parental peptide)"}
{"variant": "chain 1 EEDDYTAYAPLYCYFT", "enrichment": "-0.431 log2 (difference from the parental peptide)"}
{"variant": "chain 1 EEDDYTAYAPLWCYFT", "enrichment": "-0.341 log2 (difference from the parental peptide)"}
{"variant": "chain 1 EEDDYTAYAPLCCYFT", "enrichment": "-5.24 log2 (difference from the parental peptide)"}
{"variant": "chain 1 EEDDYTAYAPLTEYFT", "enrichment": "-6.71 log2 (difference from the parental peptide)"}
{"variant": "chain 1 EEDDYTAYAPLTVYFT", "enrichment": "-5.3 log2 (difference from the parental peptide)"}
{"variant": "chain 1 EEDDYTAYAPLTIYFT", "enrichment": "-4.63 log2 (difference from the parental peptide)"}
{"variant": "chain 1 ENDDYTAYAPLTCYFT", "enrichment": "-3.27 log2 (difference from the parental peptide)"}
{"variant": "chain 1 ELDDYTAYAPLTCYFT", "enrichment": "-1.53 log2 (difference from the parental peptide)"}
{"variant": "chain 1 ETDDYTAYAPLTCYFT", "enrichment": "-3.42 log2 (difference from the parental peptide)"}
{"variant": "chain 1 EPDDYTAYAPLTCYFT", "enrichment": "-4.82 log2 (difference from the parental peptide)"}
{"variant": "chain 1 EADDYTAYAPLTCYFT", "enrichment": "-1.7 log2 (difference from the parental peptide)"}
{"variant": "chain 1 EEDDYTAYAPLTCYFP", "enrichment": "-0.922 log2 (difference from the parental peptide)"}
{"variant": "chain 1 EEDDYTAYAPLTCYFA", "enrichment": "0.703 log2 (difference from the parental peptide)"}
{"variant": "chain 1 EEDDYTAYAPLTCYFY", "enrichment": "-0.167 log2 (difference from the parental peptide)"}
{"variant": "chain 1 EEDDYTAYAPLTCYFC", "enrichment": "0.44 log2 (difference from the parental peptide)"}
{"variant": "chain 1 EEDDYTASAPLTCYFT", "enrichment": "-4.52 log2 (difference from the parental peptide)"}
{"variant": "chain 1 EEDDYTAFAPLTCYFT", "enrichment": "0.328 log2 (difference from the parental peptide)"}
{"variant": "chain 1 EEDDYTAVAPLTCYFT", "enrichment": "-4.22 log2 (difference from the parental peptide)"}
{"variant": "chain 1 EEDDYTAHAPLTCYFT", "enrichment": "-6.35 log2 (difference from the parental peptide)"}
{"variant": "chain 1 EEDDYTAWAPLTCYFT", "enrichment": "2.6 log2 (difference from the parental peptide)"}
{"variant": "chain 1 EEDDYTAIAPLTCYFT", "enrichment": "-4.99 log2 (difference from the parental peptide)"}
{"variant": "chain 1 EEDDYTAEAPLTCYFT", "enrichment": "-1.96 log2 (difference from the parental peptide)"}
{"variant": "chain 1 EEDDYTAYAPRTCYFT", "enrichment": "-5.68 log2 (difference from the parental peptide)"}
{"variant": "chain 1 EEDDYTAYAPTTCYFT", "enrichment": "-3.85 log2 (difference from the parental peptide)"}
{"variant": "chain 1 AEDDYTAYAPLTCYFT", "enrichment": "-0.971 log2 (difference from the parental peptide)"}
{"variant": "chain 1 QEDDYTAYAPLTCYFT", "enrichment": "-0.204 log2 (difference from the parental peptide)"}
{"variant": "chain 1 TEDDYTAYAPLTCYFT", "enrichment": "-1.65 log2 (difference from the parental peptide)"}
{"variant": "chain 1 PEDDYTAYAPLTCYFT", "enrichment": "-3.73 log2 (difference from the parental peptide)"}
{"variant": "chain 1 HEDDYTAYAPLTCYFT", "enrichment": "-3.17 log2 (difference from the parental peptide)"}
{"variant": "chain 1 EEDDYTAYAPLTCYQT", "enrichment": "-6.18 log2 (difference from the parental peptide)"}
{"variant": "chain 1 EEDDYTAYAPLTCYYT", "enrichment": "-0.776 log2 (difference from the parental peptide)"}
{"variant": "chain 1 EEDDYTGYAPLTCYFT", "enrichment": "1.15 log2 (difference from the parental peptide)"}
{"variant": "chain 1 EEDDYTKYAPLTCYFT", "enrichment": "-1.87 log2 (difference from the parental peptide)"}
{"variant": "chain 1 EEDDYTVYAPLTCYFT", "enrichment": "0.636 log2 (difference from the parental peptide)"}
{"variant": "chain 1 EEDDYTIYAPLTCYFT", "enrichment": "0.819 log2 (difference from the parental peptide)"}
{"variant": "chain 1 EEDDYTFYAPLTCYFT", "enrichment": "0.877 log2 (difference from the parental peptide)"}
{"variant": "chain 1 EEDDYTPYAPLTCYFT", "enrichment": "1.36 log2 (difference from the parental peptide)"}
{"variant": "chain 1 EEDDYTMYAPLTCYFT", "enrichment": "3.01 log2 (difference from the parental peptide)"}
{"variant": "chain 1 EEDVYTAYAPLTCYFT", "enrichment": "-5.82 log2 (difference from the parental peptide)"}
{"variant": "chain 1 EEDWYTAYAPLTCYFT", "enrichment": "-0.19 log2 (difference from the parental peptide)"}
{"variant": "chain 1 EEDHYTAYAPLTCYFT", "enrichment": "-5.54 log2 (difference from the parental peptide)"}
{"variant": "chain 1 EEDFYTAYAPLTCYFT", "enrichment": "-4.23 log2 (difference from the parental peptide)"}
{"variant": "chain 1 EEDNYTAYAPLTCYFT", "enrichment": "-3.74 log2 (difference from the parental peptide)"}
{"variant": "chain 1 EEDDYTAYNPLTCYFT", "enrichment": "-3.98 log2 (difference from the parental peptide)"}
{"variant": "chain 1 EEDDYTAYEPLTCYFT", "enrichment": "1.61 log2 (difference from the parental peptide)"}
{"variant": "chain 1 EEDDYTAYPPLTCYFT", "enrichment": "2.11 log2 (difference from the parental peptide)"}
{"variant": "chain 1 EEDDYTAYQPLTCYFT", "enrichment": "-0.472 log2 (difference from the parental peptide)"}
{"variant": "chain 1 EEDDYTAYTPLTCYFT", "enrichment": "-1.4 log2 (difference from the parental peptide)"}
{"variant": "chain 1 EEDDYTAYVPLTCYFT", "enrichment": "-5.11 log2 (difference from the parental peptide)"}
{"variant": "chain 1 EEDDYTAYLPLTCYFT", "enrichment": "-0.527 log2 (difference from the parental peptide)"}
{"variant": "chain 1 EEDDYTAYFPLTCYFT", "enrichment": "-2.3 log2 (difference from the parental peptide)"}
{"variants_of": "B2"}
{"variant": "chain 1 EEDDYTAYWPLTCYFT", "enrichment": "2 log2 (difference from the parental peptide)"}
{"variant": "chain 1 EEDDYTAYPPLTCYFT", "enrichment": "-3.61 log2 (difference from the parental peptide)"}
{"variant": "chain 1 EEDDLTAYAPLTCYFT", "enrichment": "-3.97 log2 (difference from the parental peptide)"}
{"variant": "chain 1 EEDDYVAYAPLTCYFT", "enrichment": "-2.16 log2 (difference from the parental peptide)"}
{"variant": "chain 1 EEDDYQAYAPLTCYFT", "enrichment": "-0.425 log2 (difference from the parental peptide)"}
{"variant": "chain 1 EEDDYFAYAPLTCYFT", "enrichment": "2.62 log2 (difference from the parental peptide)"}
{"variant": "chain 1 EEDDYPAYAPLTCYFT", "enrichment": "-4.5 log2 (difference from the parental peptide)"}
{"variant": "chain 1 EEDDYTAYAPATCYFT", "enrichment": "-6.47 log2 (difference from the parental peptide)"}
{"variant": "chain 1 EEDDYTAYAPVTCYFT", "enrichment": "-0.0786 log2 (difference from the parental peptide)"}
{"variant": "chain 1 EEDDYTAYAPFTCYFT", "enrichment": "-0.375 log2 (difference from the parental peptide)"}
{"variant": "chain 1 EEDDYTAYAPLTCYGT", "enrichment": "-8.74 log2 (difference from the parental peptide)"}
{"variant": "chain 1 EEDDYTAYAPLTCYAT", "enrichment": "-5.34 log2 (difference from the parental peptide)"}
{"variant": "chain 1 EEDDYTAYAPLTCYDT", "enrichment": "-7.57 log2 (difference from the parental peptide)"}
{"variant": "chain 1 EEDDYTRYAPLTCYFT", "enrichment": "-0.336 log2 (difference from the parental peptide)"}
{"variant": "chain 1 EEDDYTFYAPLTCYFT", "enrichment": "1.3 log2 (difference from the parental peptide)"}
{"variant": "chain 1 EEDDYTTYAPLTCYFT", "enrichment": "-0.798 log2 (difference from the parental peptide)"}
{"variant": "chain 1 EEDDYTPYAPLTCYFT", "enrichment": "-4.29 log2 (difference from the parental peptide)"}
{"variant": "chain 1 EEDDYTQYAPLTCYFT", "enrichment": "0.522 log2 (difference from the parental peptide)"}
{"variant": "chain 1 EEPDYTAYAPLTCYFT", "enrichment": "-6.49 log2 (difference from the parental peptide)"}
{"variant": "chain 1 WEDDYTAYAPLTCYFT", "enrichment": "3.38 log2 (difference from the parental peptide)"}
{"variant": "chain 1 EEDDYTAYAPLSCYFT", "enrichment": "-6.54 log2 (difference from the parental peptide)"}
{"variant": "chain 1 EEDDYTAYAPLNCYFT", "enrichment": "-6.73 log2 (difference from the parental peptide)"}
{"variant": "chain 1 EEDDYTAYAPLKCYFT", "enrichment": "-6.56 log2 (difference from the parental peptide)"}
{"variant": "chain 1 EEDDYTAYAPLRCYFT", "enrichment": "-3.3 log2 (difference from the parental peptide)"}
{"variant": "chain 1 EEDDYTAYAPLTCYFI", "enrichment": "0.728 log2 (difference from the parental peptide)"}
{"variant": "chain 1 EWDDYTAYAPLTCYFT", "enrichment": "3.67 log2 (difference from the parental peptide)"}
{"variant": "chain 1 ECDDYTAYAPLTCYFT", "enrichment": "-4.17 log2 (difference from the parental peptide)"}
{"variant": "chain 1 EEDDYTAYAPLTCMFT", "enrichment": "-7.94 log2 (difference from the parental peptide)"}
{"variant": "chain 1 EEDDYTAYAPLTCHFT", "enrichment": "-4.96 log2 (difference from the parental peptide)"}
{"variant": "chain 1 EEDDYTAYAPLTCWFT", "enrichment": "-2.78 log2 (difference from the parental peptide)"}
{"variant": "chain 1 EEDDYTAYAPLTCIFT", "enrichment": "-6.25 log2 (difference from the parental peptide)"}
{"variant": "chain 1 EEDDYTAYAPLTNYFT", "enrichment": "-2.93 log2 (difference from the parental peptide)"}
{"variant": "chain 1 EEDDYTAYAPLTLYFT", "enrichment": "-7.7 log2 (difference from the parental peptide)"}
